According to patent US20120071419A1 (POSTECH ACADEMY INDUSTRY FOUNDATION, published 2012):

Legend:
[1] = target: T1, EGFR (Epidermal Growth Factor Receptor) (human, UniProt P00533 26-444, limits assumed); experiment: phage ELISA, wells coated with 4 ug/ml EGFR, anti-M13-HRP
T1 construct: also called EGF receptor
Experimental: (§1) Individual colonies were randomly selected from the output titration plate of the last round, and inoculated in 1 ml of super broth (3% tryptone, 2% yeast extract, 1% 3-[N-Morpholino] propanesulfonic acid [MOPS], pH 7.0). after overnight incubation at 37° C., the supernatant was used for phage ELISA (enzyme-linked immunosorbant assay). microtitration plate wells were coated with 4 μg/ml EGFR-containing PBS at 4° C. for one night, and blocked with 3% BSA-containing PBS at 37° C. for 1 hour. The plate was cultured with the phage-containing supernatant at 37° C. for 2 hours, and washed with 0.05% Tween-20-containing PBS (PBST) three times. Thereafter, HRP (horseradish peroxidase)-conjugated anti-M13 antibody (Sigma) diluted in a blocking buffer solution (1:2000) was added thereto and cultured at 37° C. for 1 hour. 50 μl of TMB substrate solution (Pierce, Rockford, Ill.) was added to each well, and OD was measured at 650 nm.

[2] = target: T1, EGFR (Epidermal Growth Factor Receptor); experiment: phage ELISA, wells coated with 4 ug/ml EGFR, anti-M13-HRP, OD 650 nm
Experimental: as §1

B1: wild type 1OZJ scaffold (B chain of 1OZJ, crystal structure of Smad3-MH1) (other, human, UniProt P84022 1-144, looked up)
chain: MSSILPFTPPIVKRLLGWKKGEQNGQEEKWCEKAVKSLVKKLKKTGQLDELEKAITTQNVNTKCITIPRSLDGRLQVSHRKGLPHVIYCRLWRWPDLHSHHELRAMELCEFAFNMKKDEVCVNPYHYQRVETPVLPPVLVPRHT
notes: domain: Smad3-MH1; 6; also called WT
OD at 650 nm [1]: 0.086 OD
binding result [2]: no binding

B2: clone 7 of the 1OZJ scaffold (designed binder)
chain: MSSILPFTPPIVKRLLGWKKGEQNGQEEKWCEKAVKSLVKKLKLTGQLDELEKAITTQNVNTKCITIPRSLDGRLQVSHRKGLPHVIYCRLWRWPDLHSHHELRAMALCAFAFMMKKCEVCVNPYHYQRVETPVLPPVLVPRHT
OD at 650 nm [1]: 1.74 OD

B3: clone 31 of the 1OZJ scaffold (designed binder)
chain: MSSILPFTPPIVKRLLGWKKGEQNGQEEKWCEKAVKSLVKKLKGTGQLDELEKAITTQNVNTKCITIPRSLDGRLQVSHRKGLPHVIYCRLWRWPDLHSHHELRAMHLCPFAFKMKKWEVCVNPYHYQRVETPVLPPVLVPRHT
notes: domain: Smad3-MH1
OD at 650 nm [1]: 0.959 OD

B4: clone 54 of the 1OZJ scaffold (designed binder)
chain: MSSILPFTPPIVKRLLGWKKGEQNGQEEKWCEKAVKSLVKKLKCTGQLDELEKAITTQNVNTKCITIPRSLDGRLQVSHRKGLPHVIYCRLWRWPDLHSHHELRAMILCDFAFPMKKREVCVNPYHYQRVETPVLPPVLVPRHT
notes: domain: Smad3-MH1
OD at 650 nm [1]: 1.16 OD

B5: clone 55 of the 1OZJ scaffold (designed binder)
chain: MSSILPFTPPIVKRLLGWKKGEQNGQEEKWCEKAVKSLVKKLKITGQLDELEKAITTQNVNTKCITIPRSLDGRLQVSHRKGLPHVIYCRLWRWPDLHSHHELRAMKLCRFAFPMKKDEVCVNPYHYQRVETPVLPPVLVPRHT
notes: domain: Smad3-MH1
OD at 650 nm [1]: 0.964 OD

B6: clone 43 of the 1OZJ scaffold (designed binder)
chain: MSSILPFTPPIVKRLLGWKKGEQNGQEEKWCEKAVKSLVKKLKRTGQLDELEKAITTQNVNTKCITIPRSLDGRLQVSHRKGLPHVIYCRLWRWPDLHSHHELRAMHLCNFAFGMKKAEVCVNPYHYQRVETPVLPPVLVPRHT
notes: domain: Smad3-MH1
OD at 650 nm [1]: 0.919 OD

B7: clone 53 of the 1OZJ scaffold (designed binder)
chain: MSSILPFTPPIVKRLLGWKKGEQNGQEEKWCEKAVKSLVKKLKATGQLDELEKAITTQNVNTKCITIPRSLDGRLQVSHRKGLPHVIYCRLWRWPDLHSHHELRAMSLCSFAFSMKKIEVCVNPYHYQRVETPVLPPVLVPRHT
notes: domain: Smad3-MH1
OD at 650 nm [1]: 1.02 OD

B8: clone 8 of the 1OZJ scaffold (designed binder)
chain: MSSILPFTPPIVKRLLGWKKGEQNGQEEKWCEKAVKSLVKKLKGTGQLDELEKAITTQNVNTKCITIPRSLDGRLQVSHRKGLPHVIYCRLWRWPDLHSHHELRAMPLCNFAFTMKKPEVCVNPYHYQRVETPVLPPVLVPRHT
notes: domain: Smad3-MH1
OD at 650 nm [1]: 1.18 OD

B9: clone 6 of the 1OZJ scaffold (designed binder)
chain: MSSILPFTPPIVKRLLGWKKGEQNGQEEKWCEKAVKSLVKKLKSTGQLDELEKAITTQNVNTKCITIPRSLDGRLQVSHRKGLPHVIYCRLWRWPDLHSHHELRAMGLCSFAFNMKKLEVCVNPYHYQRVETPVLPPVLVPRHT
OD at 650 nm [1]: 1.83 OD

B10: clone 9 of the 1OZJ scaffold (designed binder)
chain: MSSILPFTPPIVKRLLGWKKGEQNGQEEKWCEKAVKSLVKKLKATGQLDELEKAITTQNVNTKCITIPRSLDGRLQVSHRKGLPHVIYCRLWRWPDLHSHHELRAMQLCIFAFLMKKPEVCVNPYHYQRVETPVLPPVLVPRHT
OD at 650 nm [1]: 1.75 OD
